# According to paper PMC12207370, “Macrocyclic Peptide Probes for Immunomodulatory Protein CD59: Potent Modulators of Bacterial Toxin Activity and Antibody‐Dependent Cytotoxicity” (Angewandte Chemie (International Ed. in English), 2025):
# Biological target: T1, biotinylated CD59 (Homo sapiens, UniProt P13987)
# T1 construct: Recombinant soluble human CD59 with an additional C-terminal cysteine residue
# T1 sequence (P13987 26-102 limits assumed): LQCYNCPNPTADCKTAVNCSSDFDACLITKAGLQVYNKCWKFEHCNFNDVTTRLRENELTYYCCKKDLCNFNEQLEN
# Experiment: mRNA-display cyclic peptide screen against CD59-biotin, NGS abundance after 6th selection round
# Conditions: for Counts (raw counts for peptide sequence), Seq I: NGS sample Seq I; for Counts (raw counts for peptide sequence), Seq I / Counts (raw counts for peptide sequence), Seq II / Counts Seq I / Counts Seq II: sheet R6 (6th selection round); for Counts (raw counts for peptide sequence), Seq II: NGS sample Seq II; for Percentage of the pool, averaged across the two sequencing samples: average of Seq I and Seq II; for Percentage of the pool, averaged across the two sequencing samples / Percentage of the pool, Seq I / Percentage of the pool, Seq II / Percentage Seq I / Percentage Seq II / Percentage Average: sheet R6; for Percentage of the pool, Seq I: counts normalised by total counts of NGS sample Seq I; for Percentage of the pool, Seq II: counts normalised by total counts of NGS sample Seq II; for Percentage Seq I: counts normalised by total counts of sample Seq I; for Percentage Seq I / Percentage Seq II: percentage of the pool; for Percentage Seq II: counts normalised by total counts of sample Seq II; for Percentage Average: percentage of the pool averaged across the two sequencing samples; for Counts Seq I / Counts Seq II: raw NGS counts of peptide sequence; for Counts Seq I: sequencing sample Seq I; for Counts Seq II: sequencing sample Seq II
# Procedure, shortened: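 Peptide–mRNA fusions were made by in vitro translation with a customised PURE express kit. The kit lacked release factor 1 and methionine and was supplemented with […] initiator tRNA carrying N-chloroacetyl-d-tyrosine. Thioether macrocycles were formed, then enriched and amplified over iterative rounds on CD59-biotin immobilised on streptavidin beads. NGS read counts per sequence were recorded after the 6th selection round.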
Sequence,"Counts (raw counts for peptide sequence), Seq I","Counts (raw counts for peptide sequence), Seq II","Percentage of the pool, averaged across the two sequencing samples","Percentage of the pool, Seq I","Percentage of the pool, Seq II",Percentage Seq I,Percentage Seq II,Percentage Average,Counts Seq I,Counts Seq II
HCWVRGSRNYS,46,5,0.011%,0.011%,0.012%,,,,,
CFAGRLTVDAV,,,,,,0.037%,0.030%,0.034%,163,13
CFQRRTLGPDAI,,,,,,0.094%,0.088%,0.091%,412,38
CFSARAIHGSL,38,6,0.011%,0.009%,0.014%,,,,,
ISYGDRSYTYY,,,,,,0.106%,0.121%,0.113%,463,52
FVTGNRDHARG,,,,,,0.029%,0.035%,0.032%,126,15
SAWGNRQIQYC,,,,,,0.039%,0.028%,0.033%,170,12
AKGNGHFAYG,,,,,,0.144%,0.114%,0.129%,629,49
CFRSRAVSNGT,57,8,0.016%,0.013%,0.019%,,,,,
CLRRHVTASDV,,,,,,0.040%,0.023%,0.031%,174,10
SWTWGNRSTVRG,,,,,,0.011%,0.026%,0.018%,49,11
SKNGLTFLCN,,,,,,0.181%,0.211%,0.196%,794,91
FATGNRDHTRG,,,,,,0.027%,0.014%,0.020%,117,6
IARGDRNHQFF,42,6,0.012%,0.010%,0.014%,,,,,
CFKKRLDTVST,,,,,,0.021%,0.016%,0.019%,91,7
IARGDWNHQFY,,,,,,0.514%,0.450%,0.482%,2249,194
SWTWGNRNSVRG,,,,,,0.043%,0.065%,0.054%,190,28
CFRYRVTPTSY,,,,,,0.023%,0.014%,0.018%,100,6
HCWARGSRNYT,,,,,,0.041%,0.035%,0.038%,180,15
CYGGRTFIHAWS,,,,,,0.054%,0.049%,0.051%,237,21
IARGDWNHQFF,56,3,0.010%,0.013%,0.007%,,,,,
